Consider one molecule from article PMC5428714, “The structures of a naturally empty cowpea mosaic virus particle and its genome-containing counterpart by cryo-electron microscopy” (Scientific Reports, 2017).

Data set [1] addresses T1, Cowpea mosaic virus (CPMV) Large (L) coat protein (Cowpea mosaic virus, UniProt P03599 460-833).
T1 construct: Large (L) coat protein of Cowpea mosaic virus, cut from the RNA-2-encoded precursor polyprotein (VP60) by the 24 K viral proteinase; numbers count on: the mature L subunit; 60 copies each of L and S form the icosahedral capsid; also called L subunit; large coat protein subunit; source: for the cleaved eVLP map: recombinant eVLP from transient expression of VP60 and the 24 K protease
T1 sequence: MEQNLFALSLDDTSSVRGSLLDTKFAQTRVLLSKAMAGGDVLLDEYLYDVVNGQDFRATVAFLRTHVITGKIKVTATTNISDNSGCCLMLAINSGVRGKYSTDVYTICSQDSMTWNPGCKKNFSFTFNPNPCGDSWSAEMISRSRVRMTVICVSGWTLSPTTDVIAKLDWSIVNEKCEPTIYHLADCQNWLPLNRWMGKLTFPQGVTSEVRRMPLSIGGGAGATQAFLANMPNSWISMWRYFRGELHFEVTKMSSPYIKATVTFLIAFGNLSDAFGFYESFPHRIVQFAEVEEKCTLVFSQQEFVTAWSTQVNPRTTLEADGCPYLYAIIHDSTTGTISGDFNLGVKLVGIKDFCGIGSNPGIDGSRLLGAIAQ
Put plainly: cryo-EM structure; purified CPMV-T particles (naturally empty capsid assembled in planta), ~1.92 mg/ml, vitrified at 4 °C; icosahedral (I3) symmetry imposed; 4.25 Å. The following applies: both partners purified.

Data set [2] deals with the molecule itself. The description is as above.

B1: Cowpea mosaic virus (CPMV) Small (S) coat protein with the C terminal extension (as in CPMV-T) (natural protein)
chain: GPVCAEASDVYSPCMIASTPPAPFSDVTAVTFDLINGKITPVGDDNWNTHIYNPPIMNVLRTAAWKSGTIHVQLNVRGAGVKRADWDGQVFVYLRQSMNPESYDARTFVISQPGSAMLNFSFDIIGPNSGFEFAESPWANQTTWYLECVATNPRQIQQFEVNMRFDPNFRVAGNILMPPFPLSTETPPLLKFRFRDIERSKRSVMVGHTATAA
notes: Small (S) coat protein of Cowpea mosaic virus, cut from the RNA-2-encoded precursor polyprotein (VP60), with the 24 amino acid C terminal extension kept; density to Thr184 and from Pro188 to Ile197; numbers count on: the mature S subunit; Naturally empty particles are cleaved more slowly and keep the C-terminus for longer; residues after Ile197 are not seen in the map; also called S subunit; …
Consider B1, for which the binding result in data set [1] and in data set [2] was “binds” each time.
